Experiments:
Test in all cases: MST
[1] = target: T1, NT-Als7-Ig (N′-terminal domain of C. albicans Als7 fused to the Fc domain of human IgG1) (C. albicans, UniProt Q5A312 19-329)
T1 chain: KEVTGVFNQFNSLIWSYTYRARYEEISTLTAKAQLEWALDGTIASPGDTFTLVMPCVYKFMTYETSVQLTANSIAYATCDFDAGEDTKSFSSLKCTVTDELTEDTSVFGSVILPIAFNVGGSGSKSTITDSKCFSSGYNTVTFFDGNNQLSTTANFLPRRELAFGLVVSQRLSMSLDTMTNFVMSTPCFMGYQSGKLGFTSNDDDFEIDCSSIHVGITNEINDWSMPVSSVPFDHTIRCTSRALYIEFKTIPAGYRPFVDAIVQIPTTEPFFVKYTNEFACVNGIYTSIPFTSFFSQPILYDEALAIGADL

[2] = target: T2, PVR-Ig (extracellular portion of human PVR fused to the Fc domain of human IgG1) (human, UniProt P15151 21-343)
T2 chain: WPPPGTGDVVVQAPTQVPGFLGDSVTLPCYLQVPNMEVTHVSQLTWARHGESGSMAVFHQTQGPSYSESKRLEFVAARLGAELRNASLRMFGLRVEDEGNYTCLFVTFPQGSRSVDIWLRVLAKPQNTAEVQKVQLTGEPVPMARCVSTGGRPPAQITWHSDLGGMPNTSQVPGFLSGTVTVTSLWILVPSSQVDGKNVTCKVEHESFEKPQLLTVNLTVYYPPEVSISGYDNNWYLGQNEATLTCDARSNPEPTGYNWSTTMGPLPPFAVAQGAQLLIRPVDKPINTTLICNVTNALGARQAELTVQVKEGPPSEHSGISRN

[3] = target: T3, NT-Als6-Ig (N′-terminal domain of C. albicans Als6 fused to the Fc domain of human IgG1) (C. albicans, UniProt Q5A2Z7 19-329)
T3 chain: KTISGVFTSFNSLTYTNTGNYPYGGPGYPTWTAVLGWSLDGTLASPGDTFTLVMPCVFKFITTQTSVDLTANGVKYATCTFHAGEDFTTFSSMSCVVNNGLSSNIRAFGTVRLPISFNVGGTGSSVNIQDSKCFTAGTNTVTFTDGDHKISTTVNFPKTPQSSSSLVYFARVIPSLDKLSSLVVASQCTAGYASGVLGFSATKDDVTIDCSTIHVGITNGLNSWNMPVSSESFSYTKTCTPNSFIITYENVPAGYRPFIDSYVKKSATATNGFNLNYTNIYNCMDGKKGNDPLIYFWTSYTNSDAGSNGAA

[4] = target: NT-Als9-2-Ig (N′-terminal domain of C. albicans Als9, allele Als9-2, fused to the Fc domain of human IgG1) (C. albicans)

B1: TIGIT-Ig (extracellular ligand-binding domain of human TIGIT fused to the Fc domain of human IgG1) (Fc fusion)
chain: MMTGTIETTGNISAEKGGSIILQCHLSSTTAQVTQVNWEQQDQLLAICNADLGWHISPSFKDRVAPGPGLGLTLQSLTVNDTGEYFCIYHTYPDGTYTGRIFLEVLESSVAEHGARFQIP
modifications: fluorescently labeled with the Monolith NT Protein Labeling Kit RED-NHS
**Q.** Which results are given for B1?
**A.** Kd [1]: 42 nM; Kd [2]: 49 nM; Kd [3]: 6 nM; Kd [4]: 455 nM

Reference: article PMC9072312 (2022)
